Measured values reported in publication PMC2957469.

Legend:
[1] = target: JCV VP1 pentamer (amino acids 22-289) A126Q, His-tagged (JC polyomavirus (JCV), Mad-1 strain); test: SEC
[2] = target: JCV VP1 pentamer (amino acids 22-289) A126Y, His-tagged (JC polyomavirus (JCV), Mad-1 strain); test: SEC
[3] = target: JCV VP1 pentamer (amino acids 22-289) L54Y, His-tagged (JC polyomavirus (JCV), Mad-1 strain); test: SEC
[4] = target: JCV VP1 pentamer (amino acids 22-289) N123A, His-tagged (JC polyomavirus (JCV), Mad-1 strain); test: SEC
[5] = target: JCV VP1 pentamer (amino acids 22-289) R265A, His-tagged (JC polyomavirus (JCV), Mad-1 strain); test: SEC
[6] = target: JCV VP1 pentamer (amino acids 22-289) S266A/S268A, His-tagged (JC polyomavirus (JCV), Mad-1 strain); test: SEC
[7] = target: JCV VP1 pentamer (amino acids 22-289) S266N/S268N, His-tagged (JC polyomavirus (JCV), Mad-1 strain); test: SEC
[8] = target: JCV VP1 pentamer (amino acids 22-289, Mad-1 strain), His-tag removed, as crystallized (JC polyomavirus (JCV), Mad-1 strain); test: crystal structure
[9] = target: JCV VP1 pentamer (amino acids 22-289, Mad-1 strain), His-tagged, wild type (JC polyomavirus (JCV), Mad-1 strain); test: SEC

“JCV VP1 pentamer (amino acids 22-289) A126Q, His-tagged (domain or fragment)” showed a stoichiometry N [1] of 5.

Work on “JCV VP1 pentamer (amino acids 22-289) A126Y, His-tagged (domain or fragment)” yielded a stoichiometry N [2] of 5.

Work on “JCV VP1 pentamer (amino acids 22-289) L54Y, His-tagged (domain or fragment)” yielded a stoichiometry N [3] of 5.

“JCV VP1 pentamer (amino acids 22-289) N123A, His-tagged (domain or fragment)” was tested, and the stoichiometry N [4] was 5.

With “JCV VP1 pentamer (amino acids 22-289) R265A, His-tagged (domain or fragment)” the stoichiometry N [5] was 5.

In the case of “JCV VP1 pentamer (amino acids 22-289) S266A/S268A, His-tagged (domain or fragment)”, the stoichiometry N [6] is reported as 5.

Work on “JCV VP1 pentamer (amino acids 22-289) S266N/S268N, His-tagged (domain or fragment)” yielded a stoichiometry N [7] of 5.

“JCV VP1 pentamer (amino acids 22-289, Mad-1 strain), His-tag removed, as crystallized (domain or fragment)” gave a stoichiometry N [8] of 5.

“JCV VP1 pentamer (amino acids 22-289, Mad-1 strain), His-tagged, wild type (domain or fragment)” gave a stoichiometry N [9] of 5.
